Measured values: the supplement of paper PMC9233669
Variants at the floor of the assay were thinned out.

Columns and labels:
biotinyl-Leu-oxazolone = assay: self-aminoacylation, catalytic enhancement (BLO) (fold over background); higher = more active; k-Seq, kA / k0A0; sequences stand for … in GGGAAUGGAUCCACAUCUACGAAUUC…UUCACUGCAGACUUGACGAAGCUG
Method in brief: (§1)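 Mutagenized RNA pools (0.43 μM; 21-nt variable region) were treated with 2–1250 μM of each biotinyl-aminoacyl-oxazolone. Conditions were 50 μL HEPES/NaCl/KCl/MgCl2/CaCl2 buffer, 5% acetonitrile, pH 6.9–7.0, room temperature, 90 minutes. Catalytic enhancement, the median kA relative to the uncatalyzed rate, was derived from streptavidin capture, qPCR and Illumina sequencing.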

biotinyl-Phe-oxazolone = assay: self-aminoacylation, catalytic enhancement (BFO) (fold over background); higher = more active; k-Seq, kA / k0A0; sequences stand for … in GGGAAUGGAUCCACAUCUACGAAUUC…UUCACUGCAGACUUGACGAAGCUG
Method in brief: as §1

biotinyl-Val-oxazolone = assay: self-aminoacylation, catalytic enhancement (BVO) (fold over background); higher = more active; k-Seq, kA / k0A0; sequences stand for … in GGGAAUGGAUCCACAUCUACGAAUUC…UUCACUGCAGACUUGACGAAGCUG
Method in brief: as §1

biotinyl-Ile-oxazolone = assay: self-aminoacylation, catalytic enhancement (BIO) (fold over background); higher = more active; k-Seq, kA / k0A0; sequences stand for … in GGGAAUGGAUCCACAUCUACGAAUUC…UUCACUGCAGACUUGACGAAGCUG
Method in brief: as §1

biotinyl-Met-oxazolone = assay: self-aminoacylation, catalytic enhancement (BMO) (fold over background); higher = more active; k-Seq, kA / k0A0; sequences stand for … in GGGAAUGGAUCCACAUCUACGAAUUC…UUCACUGCAGACUUGACGAAGCUG
Method in brief: as §1

biotinyl-Trp-oxazolone = assay: self-aminoacylation, catalytic enhancement (BWO) (fold over background); higher = more active; k-Seq, kA / k0A0; sequences stand for … in GGGAAUGGAUCCACAUCUACGAAUUC…UUCACUGCAGACUUGACGAAGCUG
Method in brief: as §1

Row | Sequence | self-aminoacylation (biotinyl-Leu-oxazolone) | self-aminoacylation (biotinyl-Phe-oxazolone) | self-aminoacylation (biotinyl-Val-oxazolone) | self-aminoacylation (biotinyl-Ile-oxazolone) | self-aminoacylation (biotinyl-Met-oxazolone) | self-aminoacylation (biotinyl-Trp-oxazolone)
1 | AUUCCCCUGGUCAUCGGGUGA [Fam2.1 aminoacylation ribozyme variant] | 14.4 | 106 | 8.68 | 7.79 | 14.1 | 15.6
2 | AUUCAACUAUGUCAUCGGGUG [Fam2.2 aminoacylation ribozyme variant] | 6.15 | 33.1 | 2.45 | 3.08 | 4.78 | 4.57
3 | AAGUCUGCUAAUAGUGGCAAG [Fam3.1 aminoacylation ribozyme variant] | 0.866 | 3.1 | 0.765 | 0.678 | 0.98 | 1.17
4 | ACUCACCUAGGUGAUCGGGUG [Fam2.2 aminoacylation ribozyme variant] | 6.01 | 39.2 | 4.87 | 5.05 | 5.21 | 8.44
5 | UUGCACCUAGGUCAUCGGGUG [Fam2.2 aminoacylation ribozyme variant] | 4.63 | 38.8 | 3.66 | 3.11 | 3.89 | 5.53
6 | AUUAGCCAGGUCAUCGAGUGA [Fam2.1 aminoacylation ribozyme variant] | 5.48 | 19.1 | 3.8 | 3.72 | 5.35 | 6.91
7 | AUUACUCUAGUCAUCGAGUGA [Fam2.1 aminoacylation ribozyme variant] | 5.41 | 19.1 | 2.9 | 2.95 | 5.28 | 6.32
8 | CCACACUUUAAGCAUUCGGUC [Fam1B.1 aminoacylation ribozyme variant] | 1.21 | 1.05 | 1.3 | 1.39 | 1.01 | 1.36
9 | ACGUUUGCAAAUAGUCGCAAG [Fam3.1 aminoacylation ribozyme variant] | 1.29 | 1.27 | 1.2 | 1.57 | 1.38 | 1.2
10 | AAGUUUGCUAAUAAUGGCAAG [Fam3.1 aminoacylation ribozyme variant] | 0.479 | 0.786 | 0.727 | 0.644 | 0.599 | 0.585
11 | AGUACCGUGGUCAUCGAGUGA [Fam2.1 aminoacylation ribozyme variant] | 5.87 | 24.1 | 3.39 | 3.61 | 5.19 | 5.99
12 | GAGUUUGCUAAUAGUCGCAAA [Fam3.1 aminoacylation ribozyme variant] | 1.93 | 3.15 | 2.15 | 2.47 | 1.64 | 1.59
13 | CCACACUUCAAGUUAUCGGUC [Fam1B.1 aminoacylation ribozyme variant] | 1.04 | 0.799 | 1.06 | 1.09 | 1.01 | 1.08
14 | GAGUUUGCGAAUAGUCGCAAG [Fam3.1 aminoacylation ribozyme variant] | 1.76 | 7.65 | 1.56 | 1.68 | 1.8 | 2.35
15 | AUUACCCUGCUCACCGAGUGA [Fam2.1 aminoacylation ribozyme variant] | 6.12 | 39 | 3.35 | 2.76 | 5.34 | 6.29
16 | AUACUUCAAAUAAUCGGUCUG [Fam1A.1 aminoacylation ribozyme variant] | 0.998 | 5.26 | 0.877 | 0.992 | 0.965 | 4.17
17 | AUACUUCCAACAAUCGGUCUG [Fam1A.1 aminoacylation ribozyme variant] | 0.743 | 0.856 | 0.727 | 0.782 | 0.705 | 0.721
18 | GUAAUUCAAACAAUCGGUCUG [Fam1A.1 aminoacylation ribozyme variant] | 0.967 | 2.5 | 0.938 | 1.05 | 0.925 | 2.11
19 | GUUCCCCUAGGUCAUCGGGUG [Fam2.2 aminoacylation ribozyme variant] | 14.2 | 94.8 | 8.06 | 7.72 | 13.3 | 12.1
20 | AUUCACCUAGGUCACCGAGUG [Fam2.2 aminoacylation ribozyme variant] | 4.03 | 14.4 | 1.99 | 2.11 | 3.57 | 3.47
21 | CCACACUUCUAGCAAUCGAUC [Fam1B.1 aminoacylation ribozyme variant] | 0.457 | 0.626 | 0.716 | 0.556 | 0.447 | 0.432
22 | AUUACCCUGGUCCUCGAGUGU [Fam2.1 aminoacylation ribozyme variant] | 3.22 | 2.62 | 1.73 | 1.59 | 2.78 | 3.02
23 | CCACAGUUCAAGAAAUCGGUC [Fam1B.1 aminoacylation ribozyme variant] | 1.22 | 1.71 | 1.18 | 1.06 | 1.22 | 1.67
24 | AUUACCCUGGUCACCGAGUUA [Fam2.1 aminoacylation ribozyme variant] | 1.26 | 1.81 | 1.75 | 1.64 | 1.52 | 2.34
25 | CCACACUUCAAGUAAUCGGGC [Fam1B.1 aminoacylation ribozyme variant] | 1.54 | 1.28 | 1.69 | 1.68 | 1.64 | 1.73
26 | CCACAGUUCAAGCAAUAGGUC [Fam1B.1 aminoacylation ribozyme variant] | 0.731 | 1.14 | 0.862 | 0.794 | 0.783 | 0.858

Row | Sequence | self-aminoacylation (biotinyl-Leu-oxazolone) | self-aminoacylation (biotinyl-Phe-oxazolone) | self-aminoacylation (biotinyl-Val-oxazolone) | self-aminoacylation (biotinyl-Ile-oxazolone) | self-aminoacylation (biotinyl-Met-oxazolone) | self-aminoacylation (biotinyl-Trp-oxazolone)
27 | AUUACCCUGGUCCUCGAGUGA [Fam2.1 aminoacylation ribozyme variant] | 3.55 | 6.54 | 2.24 | 2.07 | 3.43 | 3.77
28 | CCACGCUUCAAGCAAUCGGUU [Fam1B.1 aminoacylation ribozyme variant] | 1.92 | 20 | 1.93 | 1.33 | 1.44 | 16.7
29 | AUUACCAUGGUCAGCGAGUGA [Fam2.1 aminoacylation ribozyme variant] | 6.19 | 30.7 | 3.19 | 3.11 | 5.49 | 6.31
30 | AAGUUUGCUAAGAGUCGCAAU [Fam3.1 aminoacylation ribozyme variant] | 1.05 | 1.24 | 1.01 | 1.42 | 0.797 | 1.74
31 | AAGUGUGCUAAUAGUAGCAAG [Fam3.1 aminoacylation ribozyme variant] | 1.21 | 1.65 | 1.33 | 1.27 | 1.02 | 1.6
32 | CUUCACCUAGCUCAUCGGGUG [Fam2.2 aminoacylation ribozyme variant] | 2.43 | 9.04 | 2.37 | 1.76 | 2.21 | 2.82
33 | AUUACGCUGGUUAUCGAGUGA [Fam2.1 aminoacylation ribozyme variant] | 5.48 | 27.5 | 3.68 | 3.22 | 5.92 | 6.53
34 | CUACUCCAAACAAUUGGUCUG [Fam1A.1 aminoacylation ribozyme variant] | 1.02 | 0.67 | 1.03 | 1.13 | 1.09 | 0.642
35 | AUUACCUUGGUCAUCGCGUGA [Fam2.1 aminoacylation ribozyme variant] | 19.2 | 130 | 9.23 | 7.37 | 17.3 | 19.5
36 | AUUCACGGAGGUCAUCGGGUG [Fam2.2 aminoacylation ribozyme variant] | 9.33 | 65.1 | 6.35 | 4.28 | 7.36 | 7.23
37 | CCACAUUUCAAACAAUCGGUC [Fam1B.1 aminoacylation ribozyme variant] | 1.31 | 17.8 | 1.28 | 1.41 | 1.33 | 9.95
38 | CCAUACUUCAAGCAAUAGGUC [Fam1B.1 aminoacylation ribozyme variant] | 0.597 | 1.03 | 0.633 | 0.72 | 0.505 | 0.513
39 | AUUACCCGAGUCAUCGAGUGA [Fam2.1 aminoacylation ribozyme variant] | 8.84 | 62.6 | 4.68 | 4.27 | 8.55 | 10.2
40 | AAGUUUACUAAUAGUCGCAAU [Fam3.1 aminoacylation ribozyme variant] | 1.42 | 3.51 | 1.6 | 1.86 | 1.48 | 1.99
41 | AUUUACUUAGGUCAUCGGGUG [Fam2.2 aminoacylation ribozyme variant] | 5.78 | 32.2 | 3.18 | 2.91 | 4.85 | 4.45
42 | CUAAUUCAUACAAUCGGUCUG [Fam1A.1 aminoacylation ribozyme variant] | 0.594 | 0.621 | 0.77 | 0.767 | 0.637 | 0.52
43 | AUUACGCUAGUCAUCGAGUGA [Fam2.1 aminoacylation ribozyme variant] | 3.48 | 2.19 | 2.47 | 2.48 | 3.01 | 3.63
44 | AUCCACCUAGGUCAACGGGUG [Fam2.2 aminoacylation ribozyme variant] | 4.15 | 30.3 | 3.34 | 2.4 | 3.17 | 4.49
45 | GUUACCCUGGACAUCGAGUGA [Fam2.1 aminoacylation ribozyme variant] | 9.14 | 48 | 4.58 | 4.6 | 8.05 | 9.84
46 | AUUCACCAAGGUCAUCGGGUG [Fam2.2 aminoacylation ribozyme variant] | 12.3 | 75.8 | 5.71 | 5.52 | 9.68 | 8.61
47 | AUUCCCCUAGGUCAUCGCGUG [Fam2.2 aminoacylation ribozyme variant] | 141 | 826 | 77.6 | 64.1 | 102 | 99.5
48 | CCAGUCUUCAAGCAAUCGGUC [Fam1B.1 aminoacylation ribozyme variant] | 2.8 | 68.5 | 1.63 | 1.67 | 1.79 | 38.6
49 | AUUACCGUGGUCAUCGACUGA [Fam2.1 aminoacylation ribozyme variant] | 0.742 | 0.518 | 1.11 | 1.06 | 0.911 | 0.507
50 | CUACUUCAAACAACCGGGCUG [Fam1A.1 aminoacylation ribozyme variant] | 1.27 | 2.15 | 1.22 | 1.46 | 1.35 | 0.852
51 | AUUCACCUAGGGCAACGGGUG [Fam2.2 aminoacylation ribozyme variant] | 4.08 | 22.8 | 2.5 | 2.59 | 2.81 | 2.92
